The test system of this assay is human OPC. Kind of assay: Expression of CNPase in human OPC in primary culture stimulated by MSRV-Env, with or without GNbAC1 (immunocytochemistry). The class given is cell-based. The following applies: for CNPase positive cells, normalized to control condition (buffer = 100%): pooled data. As for the experimental part: Full length recombinant MSRV-Env was produced and purified by PX′Therapeutics (548 aa; 61.44 KDa) (batch 110719-1). The initial concentration was 0.6 mg/ml (9.76 μM). MSRV-Env Buffer (20 mM Trizma-HCl, pH 7.5, 150 mM NaCl, 1.5% SDS, 10 mM DTT) was provided by PX′Therapeutics. This solution was used as a negative control. GNbAC1 (Batch T96/bAC1/B1; GMP production) was produced and purified by Polymun Scientific, Vienna, Austria. The initial concentration was 10 mg/ml (68.03 μM).
Human OPC were stimulated with the different treatments either by coating solutions on the cell culture plate surface before cells seeding or by adding them in the cell culture medium after cells seeding. In any case, labtek 8-wells chamber slides (Nunc) were previously coated with poly-L-lysine (Sigma-Aldrich) overnight at 37° C.
The different treatments were diluted in PBS under a sterile laminar flow hood (Fischer Bioblock, France) and the Labtek 8 wells chambers slides (Nunc; 250 μl per well) were coated as follows: • MSRV-Env (1 μg/ml) coated for 2 hours at 37° C. • MSRV-Env Buffer (same dilution than MSRV-Env) coated for 2 hours at 37° C. • MSRV-Env+GNbAC1 A1: MSRV-Env (1 μg/ml) and GNbAC1 (7.35 μg/ml=50 nM) mixture coated for 2 hours at 37° C. • MSRV-Env+GNbAC1 A2: MSRV-Env (1 μg/ml) and GNbAC1 (29.4 μg/ml=200 nM) mixture coated for 2 hours at 37° C. • MSRV-Env+GNbAC1 B1: MSRV-Env (1 μg/ml) coated for 2 hours at 37° C., washed with PBS and subsequently coated with GNbAC1 (7.35 μg/ml=50 nM) for 1 hour at 37° C. • MSRV-Env+GNbAC1 B2: MSRV-Env (1 μg/ml) coated for 2 hours at 37° C., washed with PBS and subsequently coated with GNbAC1 (29.4 μg/ml=200 nM) for 1 hour at 37° C. • GNbAC1 A1 alone: GNbAC1 (7.35 μg/ml=50 nM) coated for 2 hours at 37° C. • GNbAC1 A2 alone: GNbAC1 (29.4 μg/ml=200 nM) coated for 2 hours at 37° C. • GNbAC1 B1 alone: PBS for 2 hours at 37° C., then coated with GNbAC1 (7.35 μg/ml=50 nM) for 1 hour at 37° C. • GNbAC1 B2 alone: PBS for 2 hours at 37° C., then coated with GNbAC1 (29.4 μg/ml=200 nM) for 1 hour at 37° C. • BSA (1 μg/ml) coated for 2 hours at 37° C. • BSA+GNbAC1 A1: BSA (1 μg/ml) and GNbAC1 (7.35 μg/ml=50 nM) mixture coated for 2 hours at 37° C. • BSA+GNbAC1 A2: BSA (1 μg/ml) and GNbAC1 (29.4 μg/ml=200 nM) mixture coated for 2 hours at 37° C. • BSA+GNbAC1 B1: BSA (1 μg/ml) coated for 2 hours at 37° C., washed with PBS and subsequently coated with GNbAC1 (7.35 μg/ml=50 nM) for 1 hour at 37° C. • BSA+GNbAC1 B2: BSA (1 μg/ml) coated for 2 hours at 37° C., washed with PBS and subsequently coated with GNbAC1 (29.4 μg/ml=200 nM) for 1 hour at 37° C. Human Oligodendrocyte Precursor Cells Culture
The vial containing the human OPC was placed in a 37° C. water bath and gently agitated by rotation until the content was completely thawed. The cells were gently resuspended with a 1 ml Gilson pipette. Then, they were diluted in complete OPCM, and seeded into the 8-wells labtek culture vessels (7000 cells/cm^2=10000 cells per well) previously coated with poly-L-lysine (0.01%, Sigma) and with (or without) the treatments described above (see 3.2.1.1) under a sterile laminar flow hood (Fischer Bioblock, France). The cultures were incubated at 37° C.; 5% CO2 until subsequent immunocytochemistry experiments. The growth medium was changed the next day to remove the residual DMSO and unattached cells in the cultures treated for 72 hours.
After 3 hours of pre-cultivation (see 3.2.1.2) of the human OPC in the 8-well labtek culture vessels, the cells were incubated at 37° C. for 24 hours or 72 hours in 8-wells labteks (250 μl/well) with the addition of the following solutions: • MSRV-Env Buffer, used as a negative control, added in complete cell culture medium • MSRV-Env added at 3 nM (0.184 μg/ml) in complete cell culture medium • MSRV-Env (3 nM)+GNbAC1 (200 nM; 29.4 μg/ml) mixture added in complete cell culture medium • GNbAC1 (200 nM) alone added in complete cell culture medium Expression of TLR4 and Myelination Markers in OPC In Vitro […]

Entries after “also recorded” stand apart in the source; their conditions may differ.

B1: GNbAC1: recombinant humanized anti-Env IgG4 monoclonal antibody comprising the CDRs of SEQ ID No. 1 to 6 (antibody, chains of the INN, looked up, V domains shown)
VH: QVQLVQSGAEVKKPGSSVKVSCKASGYTFTDYEMHWVRQAPGQGLEWIGAVAPETGGTAYNQKFKGRATITADKSTSTAYMELSSLRSEDTAVYYCTSTVVPFAYWGQGTLVTVSS
VL: QIQLTQSPSSLSASVGDRVTITCSASSSVSYMYWYQQKPGKAPKAWIYRTSNLASGVPSRFSGSGSGTDYTLTISSLQPEDFATYYCQQYQSLPLTFGGGTKVEIK
For the molecule B1, the “effect on percentage of CNPase positive OPC without MSRV-Env” value (GNbAC1 50 nM or 200 nM coated alone or with BSA 1 μg/ml, 24 hours) was “no effect”. Moreover, for the setting “GNbAC1 50 nM or 200 nM, protocols GNbAC1-A and GNbAC1-B, 24 hours”, the “effect on the decrease of CNPase positive cells induced by coated MSRV-Env” value is listed as “significantly inhibits; also recorded: fully inhibits MSRV-Env effect”. Moreover, the “percentage of CNPase positive cells” value was 74±2% (GNbAC1 200 nM alone in culture medium, 24 hours); 69±4% (GNbAC1-A 50 nM (mixture with MSRV-Env 1 μg/ml coated), 24 hours, OPC ICC 02); 80±2% (GNbAC1-A 200 nM (mixture with MSRV-Env 1 μg/ml coated), 24 hours, OPC ICC 02); 90±2% (GNbAC1-A 200 nM, coated MSRV-Env 1 μg/ml, 24 hours, OPC ICC 03); 96±3% (GNbAC1-B 50 nM (coated after MSRV-Env 1 μg/ml), 24 hours, OPC ICC 02); 76±4% (GNbAC1-B 200 nM (coated after MSRV-Env 1 μg/ml), 24 hours, OPC ICC 02). Further, the “percentage of CNPase positive cells” value is on record as 91±4% (GNbAC1-B 200 nM, coated MSRV-Env 1 μg/ml, 24 hours, OPC ICC 03) and 76±2% (MSRV-Env 3 nM + GNbAC1 200 nM in culture medium, 24 hours). Further, the “effect on CNPase expression of GNbAC1 alone in culture medium” value (GNbAC1 200 nM alone, 24 hours) is given as “no effect; also recorded: does not show any effect alone”. The “effect on the inhibition of CNPase expression induced by coated MSRV-Env” value (GNbAC1 200 nM, both protocols, 24 hours, OPC ICC 03) is on record as “completely reverses; also recorded: fully inhibits MSRV-Env effect”. Besides, the “CNPase positive cells, normalized to control condition (buffer = 100%)” value reads like this: (GNbAC1-A 200 nM with coated MSRV-Env) 102±1%; (GNbAC1-B 200 nM with coated MSRV-Env) 101±1%. The “effect on the decrease of CNPase expression induced by MSRV-Env in culture medium” value (MSRV-Env 3 nM, GNbAC1 200 nM, 24 hours) is given as “fully antagonizes; also recorded: inhibits completely this effect”.

These data come from patent US10752675B2, “Compounds for treating the remyelination blockade in diseases associated with the expression of HERV-W envelope protein” (GENEURO S.A., priority 2012, dated 2020).
